The target in assay [1] is Trf4 NIM peptide (S. cerevisiae). The experiment in a line: fluorescence polarisation; fluorescence anisotropy, equilibrium binding of Nrd1 CID variants to FAM-labelled NIM peptides; 10°C, 50 mM Na2HPO4, 100 mM NaCl, pH 8; 1:1 model with non-specific binding (DynaFit).
The target of assay [2] is Sen1 NIM peptide (Sen1 aa 2,052-2,063) (S. cerevisiae) (UniProt Q00416). The description is as above.
The target of assay [3] is Trf4 NIM peptide, FAM-labelled (S. cerevisiae). The experiment in a line: fluorescence polarisation; fluorescence anisotropy; N-terminally FAM-labelled NIM peptides with purified Nrd1 CID versions; 10°C, 50 mM Na2HPO4, 100 mM NaCl, pH 8; 1:1 model with non-specific binding (DynaFit).
Assay [4] deals with T1, Nrd1 CID (S. cerevisiae, UniProt P53617 1-153).
T1 construct: The NMR sample was uniformly 15N,13C-labelled; also called wild-type Nrd1 CID; source: recombinant, purified as described previously (Kubicek et al, 2012)
T1 sequence (looked up): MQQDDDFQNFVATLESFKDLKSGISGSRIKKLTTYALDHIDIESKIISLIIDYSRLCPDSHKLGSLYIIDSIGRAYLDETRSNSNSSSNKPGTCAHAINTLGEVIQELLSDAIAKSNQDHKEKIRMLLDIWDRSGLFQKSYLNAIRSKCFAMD
The experiment in a line: NMR titration; [1H,15N] HSQC of Nrd1 CID titrated with NIM peptide, chemical shift perturbations; 20°C, 50 mM Na2HPO4, 100 mM NaCl, pH 8. The note with it: both partners purified.

The target of a further assay is T2, Nrd1 CID S25D (S. cerevisiae, UniProt P53617 1-153, S25D).
T2 construct: Nrd1 CID, S. cerevisiae; source: recombinant, purified as described previously (Kubicek et al, 2012)
T2 sequence (looked up): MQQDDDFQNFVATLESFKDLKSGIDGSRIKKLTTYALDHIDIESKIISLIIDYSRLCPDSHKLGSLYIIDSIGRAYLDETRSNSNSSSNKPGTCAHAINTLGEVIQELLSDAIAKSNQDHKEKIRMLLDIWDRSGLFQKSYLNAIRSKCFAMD
The experiment in a line: fluorescence polarisation; fluorescence anisotropy; N-terminally FAM-labelled NIM peptides with purified Nrd1 CID versions; 10°C, 50 mM Na2HPO4, 100 mM NaCl, pH 8; 1:1 model with non-specific binding (DynaFit). The note with it: both partners purified.

Assay [5] addresses T1, Nrd1 CID. The assay is described as above. The note with it: both partners purified.

Ends that are not written are not given here. FAM = 5,6-carboxyfluorescein

Experimental findings from article PMC7110113, “Termination of non‐coding transcription in yeast relies on both an RNA Pol II CTD interaction domain and a CTD‐mimicking region in Sen1” (The EMBO Journal, 2020) are described below.

Turning to “Nrd1 CID S25D (from UniProt P53617 1-153) (domain or fragment)”, the results for the Kd in assay [1] and in assay [2] were 53.9 µM and 76.1 µM, respectively.

B1: Nrd1 CID I130A (domain or fragment)
chain: MQQDDDFQNFVATLESFKDLKSGISGSRIKKLTTYALDHIDIESKIISLIIDYSRLCPDSHKLGSLYIIDSIGRAYLDETRSNSNSSSNKPGTCAHAINTLGEVIQELLSDAIAKSNQDHKEKIRMLLDAWDRSGLFQKSYLNAIRSKCFAMD
For B1, the Kd in assay [1] worked out at 4.5 µM.

B2: Nrd1 CID R28D (domain or fragment)
chain: MQQDDDFQNFVATLESFKDLKSGISGSDIKKLTTYALDHIDIESKIISLIIDYSRLCPDSHKLGSLYIIDSIGRAYLDETRSNSNSSSNKPGTCAHAINTLGEVIQELLSDAIAKSNQDHKEKIRMLLDIWDRSGLFQKSYLNAIRSKCFAMD
In assay [1], B2 registered a Kd of 63.4 µM.

B3: Nrd1 CID R133G (domain or fragment)
chain: MQQDDDFQNFVATLESFKDLKSGISGSRIKKLTTYALDHIDIESKIISLIIDYSRLCPDSHKLGSLYIIDSIGRAYLDETRSNSNSSSNKPGTCAHAINTLGEVIQELLSDAIAKSNQDHKEKIRMLLDIWDGSGLFQKSYLNAIRSKCFAMD
Molecule B3 came in with a Kd in assay [1] of 1.3 µM.

B4: Nrd1 CID R133D (domain or fragment)
chain: MQQDDDFQNFVATLESFKDLKSGISGSRIKKLTTYALDHIDIESKIISLIIDYSRLCPDSHKLGSLYIIDSIGRAYLDETRSNSNSSSNKPGTCAHAINTLGEVIQELLSDAIAKSNQDHKEKIRMLLDIWDDSGLFQKSYLNAIRSKCFAMD
For the molecule B4, the Kd in assay [1] worked out at 1.2 µM.

B5: Nrd1 CID (domain or fragment)
chain: MQQDDDFQNFVATLESFKDLKSGISGSRIKKLTTYALDHIDIESKIISLIIDYSRLCPDSHKLGSLYIIDSIGRAYLDETRSNSNSSSNKPGTCAHAINTLGEVIQELLSDAIAKSNQDHKEKIRMLLDIWDRSGLFQKSYLNAIRSKCFAMD
In turn, B5 registered a Kd in assay [3] of 0.9 µM.

B6: Nrd1 CID I130K (domain or fragment)
chain: MQQDDDFQNFVATLESFKDLKSGISGSRIKKLTTYALDHIDIESKIISLIIDYSRLCPDSHKLGSLYIIDSIGRAYLDETRSNSNSSSNKPGTCAHAINTLGEVIQELLSDAIAKSNQDHKEKIRMLLDKWDRSGLFQKSYLNAIRSKCFAMD
The molecule B6 came in with a Kd in assay [1] of 14.1 µM.

B7: Nrd1 CID L20D (domain or fragment)
chain: MQQDDDFQNFVATLESFKDDKSGISGSRIKKLTTYALDHIDIESKIISLIIDYSRLCPDSHKLGSLYIIDSIGRAYLDETRSNSNSSSNKPGTCAHAINTLGEVIQELLSDAIAKSNQDHKEKIRMLLDIWDRSGLFQKSYLNAIRSKCFAMD
B7: the Kd in assay [1] amounted to 13.4 µM.

B8: Nrd1 CID K21D (domain or fragment)
chain: MQQDDDFQNFVATLESFKDLDSGISGSRIKKLTTYALDHIDIESKIISLIIDYSRLCPDSHKLGSLYIIDSIGRAYLDETRSNSNSSSNKPGTCAHAINTLGEVIQELLSDAIAKSNQDHKEKIRMLLDIWDRSGLFQKSYLNAIRSKCFAMD
Molecule B8 returned a Kd in assay [1] of 6.1 µM.

B9: Nrd1 CID R133A (domain or fragment)
chain: MQQDDDFQNFVATLESFKDLKSGISGSRIKKLTTYALDHIDIESKIISLIIDYSRLCPDSHKLGSLYIIDSIGRAYLDETRSNSNSSSNKPGTCAHAINTLGEVIQELLSDAIAKSNQDHKEKIRMLLDIWDASGLFQKSYLNAIRSKCFAMD
Turning to B9, the Kd in assay [1] amounted to 1.4 µM.

B10: Nrd1 CID M126A (domain or fragment)
chain: MQQDDDFQNFVATLESFKDLKSGISGSRIKKLTTYALDHIDIESKIISLIIDYSRLCPDSHKLGSLYIIDSIGRAYLDETRSNSNSSSNKPGTCAHAINTLGEVIQELLSDAIAKSNQDHKEKIRALLDIWDRSGLFQKSYLNAIRSKCFAMD
In assay [1], B10 came in with a Kd of 1.1 µM.

B11: Nrd1 CID I130N (domain or fragment)
chain: MQQDDDFQNFVATLESFKDLKSGISGSRIKKLTTYALDHIDIESKIISLIIDYSRLCPDSHKLGSLYIIDSIGRAYLDETRSNSNSSSNKPGTCAHAINTLGEVIQELLSDAIAKSNQDHKEKIRMLLDNWDRSGLFQKSYLNAIRSKCFAMD
With B11, the Kd in assay [1] came to 6.1 µM.

B12: Sen1 NIM peptide (NMR) (peptide, UniProt Q00416 2052-2063, looked up)
peptide: DDDEDDYTPSIS
notes: The text prints D2052-D2053-D2054-E2055-D2056-D2057, Y2058, T2059, P2060, S2061 and I2062; it is surmised to be unlabelled; source: synthetic peptide
Consider B12, for which the binding result in the assay with Nrd1 CID [4] was “binds”.

B13: Sen1 NIM peptide, FAM-labelled (peptide, UniProt Q00416 2052-2063, looked up)
peptide: {FAM}-DDDEDDYTPSIS
notes: The text prints D2052-D2053-D2054-E2055-D2056-D2057, Y2058, T2059, P2060, S2061 and I2062; source: synthetic peptide
For the molecule B13, the binding result with Nrd1 CID S25D is given as “binds”. The molecule also displayed a Kd with Nrd1 CID [5] of 1.2 ± 0.02 µM.
